From US20250066500A1

Tests used:
Assay in all cases: cell-based or functional assay
[1] = molecular target: IL-2Rβ and common γ chain on 32Dβ cells
[2] = molecular target: IL-2Rα, IL-2Rβ and common γ chain on CTLL-2 cells
TGFβ1 (R&D systems) = TGFβ1 (R&D systems) (UniProt P01137)
Chain of UniProt P01137 (P01137 279-390 limits assumed): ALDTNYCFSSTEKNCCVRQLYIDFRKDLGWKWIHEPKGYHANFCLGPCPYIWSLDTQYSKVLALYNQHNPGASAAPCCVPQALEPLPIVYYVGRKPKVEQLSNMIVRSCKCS

EC50 of 32Dβ cell proliferation (WST1, absorbance at 450 nM) [1] | EC50 of CTLL-2 cell proliferation (WST1, absorbance at 450 nM) [2] | IC50 of inhibition of TGFβ1 activity in HEK-Blue TGFβ reporter cells (QUANTI-Blue OD at 620-655 nM) (TGFβ1 (R&D systems)) | Substance
10.6 pM |  |  | recombinant IL-15 (from UniProt P40933 49-162) (ligand)
65.5 pM | 253 pM |  | recombinant IL2 (Proleukin) (from UniProt P60568 22-153) (ligand)
 |  | 461 pM | TGFR-Fc (R&D Systems) (Fc fusion)
140 pM | 548 pM |  | recombinant IL-2 (from UniProt P60568 21-153) (ligand)
